Data as given in the nanobody polyreactivity screen of Harvey et al. (2022).

Experiment: yeast display, Sf9 membrane polyspecificity reagent, FACS + sequencing; frameworks hold sequencing errors
Procedure, shortened: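 Polyreactivity labels are assigned by the sorting gate from which each nanobody was recovered. The gates were low and high (top ~1%), set on anti-HA fluorescence for expression and streptavidin fluorescence for reagent binding. Before sorting, galactose-induced (36–48 hours) yeast display cells were stained for 1 hour at 4 °C with 10% biotinylated, detergent-solubilized Sf9 membrane reagent.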

| Sequence | polyreactivity (PSR sort gate) |
| --- | --- |
| QVQLVESGGGLVQAGGSLRLSCAASGRTFSIYAMGWYRQAPGKERELVAAISNGGRTKYADSVKGRFTISRDNAKNTVYLQMNSLKPEDTAVYYCNALAYNVPRYDYWGQGTQVTVSS | high polyreactivity |
| QVQLVESGGGLVQAGGSLRLSCAASGNIFSSNAMGWYRQAPGKERELVAAISASGGNTYYSDSVKGRFTISRDNAKNTVYLQMNSLKPEDTAFYYCNAYRGGYLRRGYYYWGQGTQVTVSS | high polyreactivity |
| QVQLVESGGGLVQAGGSLRLSCAASGYTLGVNAMGWSRQAPGKERELVAAINYIDTRTYYADSVKGRFTISRDNAKNTVYLKLNSLKPEDTAVYYCAARPYVPWVKRYYYWGQGTQVTVSS | low polyreactivity |
| QVQLVESGGGLVQAGGSLRLSSAASGRIFQKYAMGWYRPAPGKERELVAAISSGDSTYADSVKGRFTISRDNAKNTVYLQMNSLKPEDTAVYYCAADDRWDYDYWGQGTQGTVSS | low polyreactivity |
| QVQLVESGGGLVQAGGSLRLSCAASGSIFAGYAIGWYRQAPGKERELVAAISWSGGGTYYADSVKGRFTISRDNAKNTVYLQMNSLKPEDTAVYYCNAYGYRHRGNGYWGQGTQVTVSS | high polyreactivity |
| QVQLVESGGGLVQAGGSLRLSCAASGRIFGFYAMGWYRQAPGKERELVARITSGGRTTYADSVKGRFTISRDNAKNTVYLQMNSLKPEDTAVYYCAADARYHGFPKVYYYRGGYDYWGQGTQVTVSS | high polyreactivity |
| QVQHEESGGGIVQAGGSLRLSSAASGRTFKYYDMGWFRQALGKERELVATISSSDSTNYADSVKGRFTISRDNAKNTVYLQLNSLKPEDTAVYYCNADFKLIYVFDYWGQGSQVTVSS | high polyreactivity |
| QVQLVESGGGLVQAGGSLRLSCAASGSISGVYAMGWYRQAPGKERELVAAISRSGGSTYYADSVKGRFTISRDNAKNTVYLQMNSLKPEDTAVYYCAAEYTYYSYGGNYDYWGQGTQVTVSS | low polyreactivity |
| QVQLVESGGGLVQAGGSLRLSCAASGRIFFTNAMGWYRQAPGKERELVAAITSTGSRTYYADSVKGRFTISRDNAKNTVYLQMNSLKPEDTAVYYCNRVSHLDYYWGQGTQVTVSS | high polyreactivity |
| QVQLVESGGGLVQAGGSLRLSSPASGITFDKYAMGWYRQAPGKERELVAAISRSAGSTYYADSVKGRFTISRDNEKYSVYLQMKSLKPEDCAVYLCAGDPLIYDDYYWGQGTNVTVSS | high polyreactivity |
| QVQLVESGGGLVQAGGSLRLSFAASGRTFGYYAMGWYRHAPGKERELVAAITRNGGRTYYADSVKGRFTISSDNAKNTFYLQMNSLKPEDTAVYYCAKDQYKPEAFYYWGQGTQVTVSS | high polyreactivity |
| QVQLVESGGGLVQAGGSLRLSCAASGRTFNINALGWYRQAPGKERELVAAITWTGGGNTYYADSVKGRFTISRDNAKNTVYLQMNSLKPEDTAVYYCNADGRNYFYEGFWEGNYWGQGTQVTVSS | low polyreactivity |
| QVQLVESGGGLVQAGGSLRLSCAASGRTFLYYTMGWYRQAPGKERELVAAITSGTSTNYADSVKGRFTIARDNAKNTVYLQMNSQKPEDTAVYYCNKRAARSLNGYPLYGYYSWGQGTQVTVSS | low polyreactivity |
| QVQLVESGGGLVQAGGSLRLSCAASGRTFSYYAMGWYRQAPGKERELVAAISRAGRTNYADSVKGRFTISRDNAKNTVYLQMHSLKPEDTAVYYCAADLAYGRPFVSYRTRDWGQGTQVTVSS | high polyreactivity |
| QVQLVESGGGLVQAGASLRLSCAASGFNFDTNTIGWYRQAPGKERELVAVITRRGGRTYDADSVKGRFTISRDNAKNRVYLQMNSLKPVDTAVYYFNSVSYGQYGWGEGTQVTVSS | high polyreactivity |
| QVQLVESGGGLVQAGGSLRLSCAASGFIFSINAMGWYRQAPGKERELVADIDTGGSTNYADSVKGRFTISRDNAKNTVYLQMNSLKPEDTAVYYCAAQWYQYPSYISYFTSYDYWGQGTQVTVSS | low polyreactivity |
| QVHLVESGGGLVQAGGSLRLSCAASGGTFYYNTMGWSRQAPGKERELVAAITSGTSTNYADSVKGRFTISRDNAKNTVYLQMNSRIQEDTAVFDCAADPDADDPRRGYDYWGQGTQVTVSS | low polyreactivity |
| QVQLVESGGGLVQAGGSLRLSCAASGSIFPENAMGWYRQAPGKERELVAAITSSDSSTYYADSVKGRFTISRDNAKNTVYLQMNSLKPEDTAVYYCAAYRVGFRFREYYWGQGTQVTVSS | low polyreactivity |
| QVQLVESGGGLVQAGGSLRLSCAASGSTFRYNAMGWYRQAPGKERELVASISYNGGNTYYADSVKGRFTISRDNSKNTVYLQMNSLKPEDTAVYYCAAVPIKRGLILGDRGYNYWGQGTQVTVSS | high polyreactivity |
| QVQLVESGGGLVQAGGSLRLSCAASGLIFWHYAMGWYIQAPGKERELVARISYGGGSTYYADSVKGRFTISRDNAKNTVYLQMISLKPEDTSVYYCNAKYYSVSQYYWGQGTQVTVSS | high polyreactivity |
| QVQLVESGGGLVQAGGSLRLSCAASGSTFFGNTMGWYRQAPGKERELVATITRRGGSTYYADSVKGRFTMSRDNAKNTVYLQMNSLKPEDTAVYYCANRGPYTKYDYWGQGTQVTVSS | low polyreactivity |
| QVQLVESGGGLVQAGGSLRLSCAASGITFGSYAMGRYRQAPGKERELVAAIDTSGDDTYYADSVKGRFTISRDNAKNTVYLQMNSLKPEDTAVYYCAAEFPSAEVDYWGQGTQVTVSS | low polyreactivity |

| Sequence | polyreactivity (PSR sort gate) |
| --- | --- |
| QVQLVESGGGLVQAGGSLRLSCAASGFILYDYAMGWYRQAPGKEREFVAAISWSGGRTYYADSVKGRFTISRDNAKNTVYLLLNSLNPEASAVYYCAVDAYRYWWTTYVSDFDYWGQGTQLTVSS | high polyreactivity |
| QVQLVESGGGIVQAGGSLRLSCAASGSIFVTNTMVWYRQAPGKERELVAAISYRGGSTYADSVKGRFTISRDNAKNTVYLQMNSLKPEDTAVYYCAADDLSFVGYYYGYVDDVYCGQGTQVTVSS | high polyreactivity |
| QVQLVESGGGLVQAGGSLRLSCAASGITFGWYAMGWYRQAPGKERELVAAISGRGGRTYYADSVKGRFTISRDNAKYTVYLQMNSLKPEVTAVYYCAARARRWSYITGSYVLIEYEYWGQGTQVTVSS | high polyreactivity |
| QVQIVESGGGLVQAGGSLRLSCAASGRIFWAYAMGWYRQAPGKERELVAAITSGGSTYYADSVKGRFTISRDNAKNTVYLQMNRLKPDDTAVYYCAVGSNWVDDSPEDEYWGQGTQVTVSS | low polyreactivity |
| QVQLVESGGGLVQAGGSHRLSCAASGITFRRNTMGWYRQAPGKERELVATISWRGGNTFYADSVKGRFTFSRDNAKNTVYLQMNSLKPEDTAVYYCNARGYGTLIVRRERMDYWGQGTQVTVSS | high polyreactivity |
| QVQLVESGGGLVQAGGSLRLSCAASGRTLTFYAMGWYRQAPGTERELVAAITWRAGSTYYADSVKGRFTISRDNAKNTVYLQMNSMKPEDTAVYYCAREPYSASHVYGLYRGYDYWGQGTQVTVSS | low polyreactivity |
| QVQLVESGGGLVQAGGSLCLSCAASGIFVYNAMGWYRQAPGKEREFVAAINKSGASTFYADSVKGRFTISRDNAKNTVYLQMNSLKPEDTAVYYCRERDYWGQGTQVTVSS | low polyreactivity |
| QVQLVESGGGLVQAGGSLRLSCAASGFIFRGNAMGWYRQAPGKERELVAAISRRGGTTYYADSVKGRFTISRDNAKNTVYLQMNSLKPEDTAVYYCAKLVVVPFYYWGQGTQVTVSS | high polyreactivity |
| QVQLVESGAGLVQAGGSLRLSCAASGSTFESNTMGWYRQAPGKERELVAAISYSGGRTYYADSVKGRFTISRDNAKNTVYLQMNSLKPEDTAVYYCNADLYPYYWYTTGEFGYWGQGTQVTVSS | high polyreactivity |
| QVQLVESVGGLVQAGGSLRLICAASGSIFDLNAMGWYRQAPGKEREFVAAISSGGGTYYADSVKGRFTISRDNAKNTVYLQKNSLKPEDTAVYYCAFELPELYYYFAYEYWGQGTQVTVSS | high polyreactivity |
| QVQLQESGGGLVQACGSQRLSCAASGSISEGQDMGRYRRAPRKEREFVAGIAPGATTYYADSVKGRFTISRDNAKNTVYLQMNSLKPEDTAVYYCAARSVTETDHDYWGQGTQVTVSS | low polyreactivity |
| QVQLVESGGGLVQAGGSLRLSCAASGRILNVYAMGWYRQAPGKERELHAAINYRGTNTYYADSVKGRFTISRDNAKNTVFLQMNSLKPEDTAVYYCAAERWYYNVYAEYSWGQGTQVTVSS | high polyreactivity |
| QVQLVESGGGLVQAGGSLRLSCAASGRTFRAYAMGWYRQAPGKERELVAAITSGGSTKYADSVKGRFTITRDNAKNTVYLLMNSLKPEDTAVYYCAAVWYGYYSFDTYGYWGQGTQVTVSS | high polyreactivity |
| QVQLVESGGGLVQAGGSLRLSCASSGSNTFINAMGWYRQAPGKERELVAAISGSGGSTYYADSVKGRFTISRDNAKNTVYLQMNFLKPEDTAVYYAARTGQYKTYGEYDYWGQGTQVTVSS | low polyreactivity |
| QVQLVESGGGLVQAGGSLRFSCDASGRTFRYYAMGWYRQAPGKERELVAAIRSGGTTYYADSVKGRFTISRDNAKNTVYFQMNSLKPEDTAVYYCAAKVPWKYSRVYRVGFDYWGQGTQVTVSS | high polyreactivity |
| QVQLVESGGGLVQAGGSLRLSCAASGSTIFGNVMGWYRQAPGKERELVAAISKTGGNTYYADSVKGRFTISRDNAKNTVYLQMNSLKPEDTAVYYCNALRGDWRDMGYWGQGTQVTVSS | high polyreactivity |
| QVQLVESGGGLVQAGGSLRLSCAASGRTFGRYAMGWYRQAPGKERELVATITSGGSTNYADSVKGRFTISRDNAKNTVYLQMNSLKPEDTAVYYCAADVKRDRVWGGDYWGQGTQVTVSS | low polyreactivity |
| QVQHVETGGGLVQAGGSLRLSCAASGFIFAEYAMGWYRQAPGKETEEVAAITSGGSTSYADSVKGRFTISRDNAKNTVYLQMNSLKPEDTAVYYCAATWYYLYNVWKHWYEYGYWGQGTQVTVSS | low polyreactivity |
| QVQLVESGGGLVQAGGSLRLSCAASGRIFSGYAMGWYRQAPGKERELVAAITSRSGSTYYADSVKGRFTISRDNAKNTVYLQMNSLKPEDTAVYYCAAEYVRFYWYTSAYWGQGTQVTVSS | low polyreactivity |
| QVQLVESGGGLVQAGGILSLSCAASGNIFAYNAMGWYRQAPGKERELVAAITDSGGNTFYADSVKGRFTISRDNAKNTVYLQMISVKPEDTAVYYCAADPDGWGFVYPRYVSWGQGTQVTVSS | low polyreactivity |
| QVQLVESGGGLVQAGGSLRLSCAASGRTFDYYTMGWYRQAPGKERELVAAISWSGSTTYYADSVKGRFTISRDNAKNTVSLQMNSLKPEDTAVYYCAKSYRFPSVGPPGELDYWGQGTQVTVSS | high polyreactivity |
